Source: the supplement of paper PMC9170038

Tested on: K4 kissing-loop RNA reporter
Assay: apparent KD of K4 kissing-loop reporter; higher = weaker reporter binding
Conditions: Eterna round: R107
Method: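 RNA-MaP round R107: designed RNA switches with theophylline, tryptophan, arginine or FMN aptamers are transcribed on-chip within common flanks. They are titrated with a labelled K4 kissing-loop RNA reporter in RNA-MaP buffer (100 mM Tris pH 7.5, 80 mM KCl, 4 mM MgCl2), without ligand or with the indicated ligand. Median apparent KD per design.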

[1] = input ligand: theophylline 20 uM
[2] = input ligand: tryptophan 2.4 mM
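Further: bound reporter read as fluorescence of individual clusters on recovered sequencing chips by microscopy, with normalized cluster intensities fitted with a binding model.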

| Sequence | apparent KD of K4 kissing-loop reporter (input ligand: FMN 200 uM) [nM] | apparent KD of K4 kissing-loop reporter (input ligand: arginine 13.2 mM) [nM] | apparent KD of K4 kissing-loop reporter (input ligand: none) [nM] | apparent KD of K4 kissing-loop reporter [1] [nM] | apparent KD of K4 kissing-loop reporter [2] [nM] |
| --- | --- | --- | --- | --- | --- |
| AAGCAGUCACUCGUAUCCAUCGAAGAUGGUCGAGGACCGGUACGGCCGCCACUCGGAGUGAUGUUCCGAAGACUGCAAAAUAAAA [#SwitchBubble 13] | 240 | 230 | 250 | 296 | 348 |
| UAUAUAGUGACGGCCGCCACUAUAUUAAUGUUUUUGUUAGAGUGAUGUUUUGAUUAAUAUUUUUAUAGGACCGGGUUAUAUGUUA [xzzxmullin] | 657 | 403 | 634 | 628 | 558 |
| GAUUCUGUUCGAAAGAACGGAAUCACGGAAGGAGCGAGAGAAAUCUCAGGUAGGUCGCCGAAUUUUAGAUAGUGAUGUUAUCAUU [Arginine A K4 1] | 820 | 724 | 1080 | 856 | 711 |
| AUUAAUUUCAGAGGAUAUCGUUAUUUUAUUUAAUUUAUUCAUUUAUGCAGUGAUGUUGCUAUUAUUCGAGAAGGCUGAUUUAUAA [JR_ExcFMNB_Sub006] | 82.1 | 83.5 | 34 | 70.4 | 35.3 |
| UUUAUAAAGUCGGCCGCCACUGGAUUUAUGUUUGUUUCGUCUGGAUCAAAGUGAUGUUUUGAGUCCAGGACCGGGACAUUUGUUA [whbob_Ex_Tryp_B_w38] | 88.9 | 74.8 | 81.2 | 73.5 | 113 |
| AGGGAUGAUGGAUAAAUAAACAAAGGAGAUACCAGUCAAAUAAUAGGCCCUUGGCAGCUUCAGAUCAGUGAUGUUGAAGAUAUUG [#09 K4 Theophylline A Same State] | 109 | 67.1 | 139 | 148 | 110 |
| GCAUCCAUGGCAGGAUAUAGGUUCGUGGAGUGAUGUUCCAUAGCCCGAGUGAUGUUCGUUAUCCGCCUAGAAGGGCCAUGGAUGC [whbob_Ex_FMNB__2th213] | 247 | 192 | 227 | 219 | 203 |
| CUGAGCCUGACGUAAGUCAGGCUCUGCGAGCGAGGACCGGUACGGCCGCCACUCGGUGCAGUGAUGUUGCAUGGCCGCAAGGCCG [#2 Exclusion - Tryptophan A Attempt #19 (HarryS)] | 293 | 246 | 234 | 254 | 345 |
| AAGCAUUCUUCGGAAUGCAGACCCGCUGAGGAGGAUAUGACGAAAGUCAGAAGGCCUCAGUGAUGUUGAGGCCUCCUCAAUGGUC [Omei KL FMN A Exc A v1] | 138 | 135 | 187 | 173 | 171 |
| UACAUUGCAGUCUUCUUCGUCCUAGAUGACUAGGAUAUCAGGAAACUGAGAAGGAGUCACUGCAGUGAUGUUGCAGCUAGGACGA [KL-SSFMN-A9] | 110 | 118 | 110 | 121 | 105 |
| AGGUCACCACUACAGUGAUGUUGUAGGGAGCAGGAUAUGCAGAAAUGCAGAAGGGCUCGCUCCCGGUGACCGAAUGAAACAUUCA [Omei KL FMN A SS A v6] | 432 | 258 | 318 | 289 | 282 |
| CCUAUCUCAUACGAUACCAGUGAAUAACCAGUGAUGUUGGAAUAACCAAGGAAUAUUUUACACCCUUGGCAGCGUAUGGGAUAGG [Ex Theophylline B K4 25] | 274 | 239 | 305 | 270 | 269 |
| UGUACCGAGUUAGGAUAUGUCGUCGAAAGACGAAAUGGAGUGAUGUUCCUUAAACUGCGAAAGCAGACAGAAGGGAUUUGGUACU [FmnBS 29 U11+U77] | 331 | 442 | 412 | 510 | 378 |
| GAUAUAGUGAUGUUAUAUACUGAUAGACAACGAGGACCGGUACGGCCGCCACUCGAGAGGGUGAAAAUGAUGAUAAAAUAAUGAU [#02 K4 Tryptophan A Exclusion] | 329 | 318 | 333 | 306 | 278 |
| UGUGUUUACCUGACUCAGUGAUGUUGAGAAGGAGCGUGCUAAAGCACAGGUAGGUCGCUCAACCUAAAUUCAGGUGAGCACUAAA | 350 | 258 | 312 | 326 | 257 |
| GGAGUUACCUGGGAUACCAGUCGGAGUCCUAGAGCUCGGAGUGAUGUUCUGGGAUGUUUCGGCCCUUGGCAGCUCUGGGACUCCC [#2 Exclusion - Theophylline B Attempt #11 (HarryS)] | 615 | 470 | 949 | 921 | 630 |
| AAUGUGCAGGGAAGGAGCGUAGUCCAGUGCUGUUGGAGUUAGAUACCAGUGAUGUUGGUUAUACAGGUAGGUCGCCCUAAAGCGC [whbob_Ex_Arginine_B_2th161] | 139 | 154 | 140 | 161 | 130 |
| UGAUACCAGACGGCCGCCACUGGUGCAUGUCAAAGACAUGCUAACCAAAUCGUGGAGUGAUGUUCCAGGACCGGGUCUGGUAUCU [TrypBX 22 #SwitchBubble #Palindromic #StaticStem] | 235 | 207 | 217 | 239 | 570 |
| UCGAAAUGCGACUCCUAGUUACACCGGGAAGGAGCGUGGAUAACCGCAGGUAGGUCGCCCGGAAGCCGGACCAGUGAUGUUGGUC [Exclusion Arginine A Gf 28] | 207 | 177 | 203 | 274 | 155 |
| AUUCAGAUCUGAAGGAGCGCCUUGACAAAUUACUGCUUUGAGCAGUGAUGUUGCUCAAUUAGGCAGGUAGGUCGCAGAUCUAACC [Arg B Ex t7] | 377 | 335 | 414 | 383 | 389 |
| CCGGCCCGGCCGGAUACCAGUGCGCCGCUGGGAACUGCGGGCCCAGAGUGAUGUUCGGGACACCCUUGGCAGCCGCCUGGGUCGC [#2 Same State - Theophylline B Attempt #25 (HarryS)] | 450 | 345 | 562 | 360 | 439 |
